Values joined by “and” are separate entries in the source; they are usually repeats but may differ in a detail not shown here. Equal values may be shown once. Read-outs that look alike come from different tables or passages of the source.
B1: FGF21ΔH-Knull-H1K: FGF21 lysine-null mutant with H1K, SEQ ID NO:23 (protein, listed as Homo sapiens)
chain: KPIPDSSPLLQFGGQVRQRYLYTDDAQQTEAHLEIREDGTVGGAADQSPESLLQLRALRPGVIQILGVRTSRFLCQRPDGALYGSLHFDPEACSFRELLLEDGYNVYQSEAHGLPLHLPGNRSPHRDPAPRGPARFLPLPGLPPALPEPPGILAPQPPDVGSSDPLSMVGPSQGRSPSYAS
B2: FGF21ΔH-Knull-P2: FGF21 lysine-null mutant, SEQ ID NO:22 (protein, listed as Homo sapiens)
chain: PIPDSSPLLQFGGQVRQRYLYTDDAQQTEAHLEIREDGTVGGAADQSPESLLQLRALRPGVIQILGVRTSRFLCQRPDGALYGSLHFDPEACSFRELLLEDGYNVYQSEAHGLPLHLPGNRSPHRDPAPRGPARFLPLPGLPPAPLEPPGILAPQPPDVGSSDPLSMVGPSQGRSPSYAS
B3: L1-FGF21ΔH-A129C: Linker-1 conjugated to FGF21ΔH-A129C protein (Table 4; Table 5 row L1) (conjugate, UniProt Q9NSA1 29-209, looked up, variant H1* A129C)
Fibroblast growth factor 21: PIPDSSPLLQFGGQVRQRYLYTDDAQQTEAHLEIREDGTVGGAADQSPESLLQLKALKPGVIQILGVKTSRFLCQRPDGALYGSLHFDPEACSFRELLLEDGYNVYQSEAHGLPLHLPGNKSPHRDPCPRGPARFLPLPGLPPALPEPPGILAPQPPDVGSSDPLSMVGPSQGRSPSYAS
modifications: Linker-1 attached
B4: L4-FGF21ΔH-A129C: Linker-4 conjugated to FGF21ΔH-A129C protein (Table 4; Table 5 row L4) (conjugate, UniProt Q9NSA1 29-209, looked up, variant H1* A129C)
Fibroblast growth factor 21: PIPDSSPLLQFGGQVRQRYLYTDDAQQTEAHLEIREDGTVGGAADQSPESLLQLKALKPGVIQILGVKTSRFLCQRPDGALYGSLHFDPEACSFRELLLEDGYNVYQSEAHGLPLHLPGNKSPHRDPCPRGPARFLPLPGLPPALPEPPGILAPQPPDVGSSDPLSMVGPSQGRSPSYAS
modifications: Linker-4 attached
B5: L3-FGF21ΔH-A129C: Linker-3 conjugated to FGF21ΔH-A129C protein (Table 4; Table 5 row L3) (conjugate, UniProt Q9NSA1 29-209, looked up, variant H1* A129C)
Fibroblast growth factor 21: PIPDSSPLLQFGGQVRQRYLYTDDAQQTEAHLEIREDGTVGGAADQSPESLLQLKALKPGVIQILGVKTSRFLCQRPDGALYGSLHFDPEACSFRELLLEDGYNVYQSEAHGLPLHLPGNKSPHRDPCPRGPARFLPLPGLPPALPEPPGILAPQPPDVGSSDPLSMVGPSQGRSPSYAS
modifications: Linker-3 attached
B6: FGF21ΔH-H125C: FGF21 cysteine mutant, SEQ ID NO:6 (protein, listed as Homo sapiens)
chain: PIPDSSPLLQFGGQVRQRYLYTDDAQQTEAHLEIREDGTVGGAADQSPESLLQLKALKPGVIQILGVKTSRFLCQRPDGALYGSLHFDPEACSFRELLLEDGYNVYQSEAHGLPLHLPGNKSPCRDPAPRGPARFLPLPGLPPALPEPPGILAPQPPDVGSSDPLSMVGPSQGRSPSYAS
B7: FGF21ΔH-Knull-S181K: FGF21 lysine-null mutant with S181K, SEQ ID NO:24 (protein, listed as Homo sapiens)
chain: PIPDSSPLLQFGGQVRQRYLYTDDAQQTEAHLEIREDGTVGGAADQSPESLLQLRALRPGVIQILGVRTSRFLCQRPDGALYGSLHFDPEACSFRELLLEDGYNVYQSEAHGLPLHLPGNRSPHRDPAPRGPARFLPLPGLPPAPLEPPGILAPQPPDVGSSDPLSMVGPSQGRSPSYAK
B8: L2-FGF21ΔH-A129C: Linker-2 conjugated to FGF21ΔH-A129C protein (Table 4; Table 5 row L2) (conjugate, UniProt Q9NSA1 29-209, looked up, variant H1* A129C)
Fibroblast growth factor 21: PIPDSSPLLQFGGQVRQRYLYTDDAQQTEAHLEIREDGTVGGAADQSPESLLQLKALKPGVIQILGVKTSRFLCQRPDGALYGSLHFDPEACSFRELLLEDGYNVYQSEAHGLPLHLPGNKSPHRDPCPRGPARFLPLPGLPPALPEPPGILAPQPPDVGSSDPLSMVGPSQGRSPSYAS
modifications: Linker-2 attached
B9: FGF21ΔH-A129C: FGF21 cysteine mutant, SEQ ID NO:9 (protein, listed as Homo sapiens)
chain: PIPDSSPLLQFGGQVRQRYLYTDDAQQTEAHLEIREDGTVGGAADQSPESLLQLKALKPGVIQILGVKTSRFLCQRPDGALYGSLHFDPEACSFRELLLEDGYNVYQSEAHGLPLHLPGNKSPHRDPCPRGPARFLPLPGLPPALPEPPGILAPQPPDVGSSDPLSMVGPSQGRSPSYAS

Tests used:
[1] = set-up: species or system Swiss-Webster mice; settings: mouse, in vivo
Procedure: The PK of FGF21 antibody conjugates were examined in mice after IV or SC administration. […] Antibody conjugates concentrations in serum were determined using an ELISA which captured the FGF21 portion of the antibody conjugates through a monoclonal anti-hFGF21 antibody bound to a 96-well plate. FGF21 antibody conjugates bound to the plate were detected through an anti-hFc monoclonal antibody, and concentrations were determined using a standard curve of the PK dosing solution diluted into serum-containing assay buffer. SC bioavailability was calculated as the ratio of the area-under the curve (AUC) of the SC serum concentration profile divided by the AUC of the IV serum concentration profile.

[2] = test system: Glut1 mRNA expression in differentiated 3T3-L1 adipocytes; assay: Glut1 Taqman assay; type: cell-based; settings: 6 hrs
Procedure: Differentiated 3T3-L1 adipocytes were used to measure the Glut1 mRNA expression by qPCR method. Overnight serum starved day 10-14 differentiated 3T3-L1 adipocytes were treated with compounds for 6 hrs. Total RNA was extracted from these cells, and Glut1 and GAPDH mRNA expression was measured using a Quantitect Probe RT-PCR kit and running a quantitative real time PCR reaction in a Taqman machine (Applied Biosystems®). The bioactivity of the compounds was determined by a fold change in Glut1 mRNA levels normalized by the GAPDH mRNA levels from each sample. EC50 values as measurements of the potency of the compounds were obtained from the dose response curves in the assay.
3T3-L1 adipocytes were seeded at day 8 in 24-well tissue culture plates (Falcon®, Cat#353047), and incubated in DMEM complete medium (10% FBS, 2 mM L-glutamine, 1% P/S) at 37° C., 5% CO2. […] The medium was aspirated, and then RNA extracted from the cells using the RNeasy mini Kit according to the manufacturer's instructions. RNA was measured at A260 nm using the Spectramax® Plus spectrophotometer.

[3] = Stability of linkers L1-L4 conjugated to FGF21 (LC-MS); type: physicochemical; settings: +4° C.
Procedure: The following experiment was performed to investigate the chemical stability over 2 weeks of the four linkers upon conjugation to FGF21: each linker was conjugated to FGF21, placed at +4° C. storage conditions, and aliquots were removed and quenched by freezing at specific time points, and linker stability was monitored by LCMS analysis.
The four linkers were dissolved in DMSO from lyophilized stock material. […] L1 was reacted with protein for 30 mins; L2, L3 and L4 were reacted for 2 hrs. The conjugation reaction was quenched by removal of excess linkers through size-exclusion resin. Conjugated FGF21ΔH-A129C protein was placed at +4° C. for stability storage. […] Analysis of linker stability was performed by LC-MS analysis to determine the relative amount of unconjugated protein, protein+linker conjugation, and single and double hydrolysis events of the conjugated protein+linker.
Linker hydrolysis is the critical analytical variable in this experiment. Hydrolysis was monitored by observing the subsequent addition of H2O to the FGF21-linker complex. A single addition of H2O, +(1) H2O, likely indicates the hydrolysis of the active AZD group that is present on all 4 linkers. The addition of a second H2O molecule, +(2) H2O, is a strong indicator of hydrolysis (eg—chemical instability) in the linker. L1 is particularly susceptible because of the presence of a maleimide functional group.

[4] = differentiated 3T3-L1 adipocytes, read-out: EC50 in Glut1 Taqman assay
[5] = 0 hrs, % of total measured protein

Row | Molecule | EC50 [2, 4] | 1 linker (protein+linker) ([3]; 0 hrs) | +(1) H2O ([3]; 0 hrs) | +(2) H2O ([3]; 0 hrs) | 0 linker (unconjugated protein) [3, 5] | 0 linker (unconjugated protein) ([3]; 24 hrs) | 1 linker (protein+linker) ([3]; 24 hrs) | +(1) H2O ([3]; 24 hrs) | +(2) H2O ([3]; 24 hrs) | 0 linker (unconjugated protein) ([3]; 72 hrs) | 1 linker (protein+linker) ([3]; 72 hrs) | +(1) H2O ([3]; 72 hrs) | +(2) H2O ([3]; 72 hrs) | 0 linker (unconjugated protein) ([3]; 168 hrs) | 1 linker (protein+linker) ([3]; 168 hrs) | +(1) H2O ([3]; 168 hrs) | +(2) H2O ([3]; 168 hrs) | 0 linker (unconjugated protein) ([3]; 336 hrs) | 1 linker (protein+linker) ([3]; 336 hrs) | +(1) H2O ([3]; 336 hrs) | further results
1 | B1 | 6.4 nM and 4.3 nM | – | – | – | – | – | – | – | – | – | – | – | – | – | – | – | – | – | – | – | IV half-life ([1]; iv): 16 h; SC bioavailability ([1]; sc): 51%; SC half-life ([1]; sc): 11 h
2 | B2 | 1.2 nM | – | – | – | – | – | – | – | – | – | – | – | – | – | – | – | – | – | – | – | –
3 | B3 | – | 49% | 30% | 8% | 13% | 14% | 41% | 34% | 11% | 14% | 40% | 35% | 11% | 10% | 33% | 40% | 18% | 12% | 28% | 41% | +(2) H2O ([3]; 336 hrs (2 weeks)): 18%
4 | B4 | – | 46% | 28% | 6% | 20% | 20% | 46% | 27% | 7% | 21% | 42% | 30% | 7% | 21% | 41% | 32% | 6% | 22% | 41% | 31% | +(2) H2O ([3]; 336 hrs (2 weeks)): 6%
5 | B5 | – | 45% | 30% | 6% | 19% | 18% | 47% | 27% | 8% | 19% | 43% | 30% | 8% | 19% | 43% | 29% | 8% | 20% | 43% | 29% | +(2) H2O ([3]; 336 hrs (2 weeks)): 8%
6 | B6 | 1.2 nM | – | – | – | – | – | – | – | – | – | – | – | – | – | – | – | – | – | – | – | –
7 | B7 | 7.5 nM | – | – | – | – | – | – | – | – | – | – | – | – | – | – | – | – | – | – | – | –
8 | B8 | – | 45% | 27% | 6% | 22% | 23% | 43% | 26% | 8% | 24% | 37% | 32% | 8% | 24% | 40% | 29% | 7% | 26% | 38% | 28% | +(2) H2O ([3]; 336 hrs (2 weeks)): 8%
9 | B9 | 1.4 nM | – | – | – | – | – | – | – | – | – | – | – | – | – | – | – | – | – | – | – | EC50 ([2]; 3T3-L1 adipocytes, Taqman quantitative real-time PCR, read-out: Glut1 RNA expression EC50): 16 nM; Glut1 induction in 3T3-L1 adipocytes [2]: dose-dependent Glut1 induction
